Measurements as given in the supplement of paper PMC9112550, “Optimization of the antimicrobial peptide Bac7 by deep mutational scanning” (BMC Biology, 2022).

System: Escherichia coli TOP10
Test: shrunken log2 fold change of peptide-encoding DNA abundance (4.5 h post-induction vs induction); higher = less antimicrobial activity (less host growth inhibition)
Conditions: time post-induction: 4.5 h; library: site-saturation at positions 5, 18, 19, 20
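Note: peptides expressed intracellularly from a pBAD plasmid library in pooled LB shake-flask culture, induced with 0.3% L-arabinose, DNA abundance read by NGS, three biological replicates, DESeq2 with apeglm shrinkage.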

Row | Sequence | shrunken log2 fold change
1 | RRIRGRPPRLPRPRPRPQQNPRP | 0.383
2 | RRIRGRPPRLPRPRPRPQRKPRP | 0.471
3 | RRIRGRPPRLPRPRPRPQRTPRP | 0.853
4 | RRIRGRPPRLPRPRPRPQRVPRP | 0.423
5 | RRIRGRPPRLPRPRPRPQTEPRP | 0.149
6 | RRIRGRPPRLPRPRPRPQTWPRP | 0.0175
7 | RRIRGRPPRLPRPRPRPQVQPRP | 0.273
8 | RRIRGRPPRLPRPRPRPQWCPRP | 0.216
9 | RRIRGRPPRLPRPRPRPRAHPRP | 0.857
10 | RRIRGRPPRLPRPRPRPRCQPRP | 0.835
11 | RRIRGRPPRLPRPRPRPRDLPRP | 0.473
12 | RRIRGRPPRLPRPRPRPREPPRP | 0.812
13 | RRIRGRPPRLPRPRPRPRGHPRP | 1.11
14 | RRIRGRPPRLPRPRPRPRGIPRP | 1.23
15 | RRIRGRPPRLPRPRPRPRIAPRP | 0.519
16 | RRIRGRPPRLPRPRPRPRIEPRP | 0.249
17 | RRIRGRPPRLPRPRPRPRILPRP | 0.404
18 | RRIRGRPPRLPRPRPRPRKGPRP | 0.148
19 | RRIRGRPPRLPRPRPRPRLLPRP | 0.908
20 | RRIRGRPPRLPRPRPRPRLNPRP | 0.57
21 | RRIRGRPPRLPRPRPRPRMQPRP | 0.494
22 | RRIRGRPPRLPRPRPRPRNEPRP | 0.725

Row | Sequence | shrunken log2 fold change
23 | RRIRGRPPRLPRPRPRPRNTPRP | 0.0904
24 | RRIRGRPPRLPRPRPRPRQDPRP | 0.452
25 | RRIRGRPPRLPRPRPRPRQNPRP | 0.768
26 | RRIRGRPPRLPRPRPRPRQRPRP | 0.815
27 | RRIRGRPPRLPRPRPRPRRDPRP | 0.424
28 | RRIRGRPPRLPRPRPRPRRLPRP | 0.502
29 | RRIRGRPPRLPRPRPRPRSAPRP | 1.31
30 | RRIRGRPPRLPRPRPRPRTKPRP | 0.942
31 | RRIRGRPPRLPRPRPRPRTVPRP | 0.448
32 | RRIRGRPPRLPRPRPRPRVMPRP | 0.473
33 | RRIRGRPPRLPRPRPRPRVNPRP | 0.394
34 | RRIRGRPPRLPRPRPRPRVVPRP | 0.667
35 | RRIRGRPPRLPRPRPRPRWAPRP | 0.702
36 | RRIRGRPPRLPRPRPRPRWHPRP | 0.522
37 | RRIRGRPPRLPRPRPRPRWKPRP | 0.0802
38 | RRIRGRPPRLPRPRPRPRWSPRP | 0.754
39 | RRIRGRPPRLPRPRPRPRYDPRP | -0.057
40 | RRIRGRPPRLPRPRPRPRYGPRP | 0.134
41 | RRIRGRPPRLPRPRPRPRYRPRP | 0.0699
42 | RRIRGRPPRLPRPRPRPSAPPRP | 0.711
43 | RRIRGRPPRLPRPRPRPSDEPRP | 0.178
44 | RRIRGRPPRLPRPRPRPSDFPRP | 0.0231

Row | Sequence | shrunken log2 fold change
45 | RRIRGRPPRLPRPRPRPSEHPRP | 0.149
46 | RRIRGRPPRLPRPRPRPSEIPRP | -0.193
47 | RRIRGRPPRLPRPRPRPSEVPRP | 0.425
48 | RRIRGRPPRLPRPRPRPSFGPRP | 0.0834
49 | RRIRGRPPRLPRPRPRPSFKPRP | -0.0759
50 | RRIRGRPPRLPRPRPRPSGDPRP | 0.952
51 | RRIRGRPPRLPRPRPRPSGFPRP | 0.547
52 | RRIRGRPPRLPRPRPRPSGPPRP | -0.0342
53 | RRIRGRPPRLPRPRPRPSGTPRP | 0.913
54 | RRIRGRPPRLPRPRPRPSITPRP | 0.0975
55 | RRIRGRPPRLPRPRPRPSMMPRP | 0.0755
56 | RRIRGRPPRLPRPRPRPSMRPRP | 1.15
57 | RRIRGRPPRLPRPRPRPSNCPRP | 0.0376
58 | RRIRGRPPRLPRPRPRPSNYPRP | -0.0111
59 | RRIRGRPPRLPRPRPRPSPVPRP | 0.585
60 | RRIRGRPPRLPRPRPRPSQDPRP | 0.296
61 | RRIRGRPPRLPRPRPRPSQKPRP | 0.0248
62 | RRIRGRPPRLPRPRPRPSRLPRP | 0.204
63 | RRIRGRPPRLPRPRPRPSSQPRP | 0.099
64 | RRIRGRPPRLPRPRPRPSVIPRP | 0.159
65 | RRIRGRPPRLPRPRPRPSVLPRP | 0.389
66 | RRIRGRPPRLPRPRPRPSVRPRP | 0.529

Row | Sequence | shrunken log2 fold change
67 | RRIRGRPPRLPRPRPRPSYFPRP | -0.0109
68 | RRIRGRPPRLPRPRPRPSYMPRP | -0.0696
69 | RRIRGRPPRLPRPRPRPTADPRP | 2.65
70 | RRIRGRPPRLPRPRPRPTCRPRP | 0.825
71 | RRIRGRPPRLPRPRPRPTCYPRP | 0.34
72 | RRIRGRPPRLPRPRPRPTEYPRP | -0.0607
73 | RRIRGRPPRLPRPRPRPTHIPRP | 0.255
74 | RRIRGRPPRLPRPRPRPTIHPRP | 0.434
75 | RRIRGRPPRLPRPRPRPTKKPRP | 0.689
76 | RRIRGRPPRLPRPRPRPTKWPRP | 0.262
77 | RRIRGRPPRLPRPRPRPTLLPRP | 0.884
78 | RRIRGRPPRLPRPRPRPTLWPRP | 1.27
79 | RRIRGRPPRLPRPRPRPTMDPRP | 0.985
80 | RRIRGRPPRLPRPRPRPTMTPRP | 2.08
81 | RRIRGRPPRLPRPRPRPTPAPRP | 1.43
82 | RRIRGRPPRLPRPRPRPTPGPRP | 0.971
83 | RRIRGRPPRLPRPRPRPTPQPRP | 1.05
84 | RRIRGRPPRLPRPRPRPTRVPRP | 0.748
85 | RRIRGRPPRLPRPRPRPTTWPRP | 0.521
86 | RRIRGRPPRLPRPRPRPVAYPRP | 0.0402
87 | RRIRGRPPRLPRPRPRPVDPPRP | 0.107
88 | RRIRGRPPRLPRPRPRPVEAPRP | 0.997

Row | Sequence | shrunken log2 fold change
89 | RRIRGRPPRLPRPRPRPVEGPRP | 0.305
90 | RRIRGRPPRLPRPRPRPVEHPRP | 0.117
91 | RRIRGRPPRLPRPRPRPVEPPRP | 0.79
92 | RRIRGRPPRLPRPRPRPVFDPRP | 0.39
93 | RRIRGRPPRLPRPRPRPVFIPRP | 0.0618
94 | RRIRGRPPRLPRPRPRPVFVPRP | 0.324
95 | RRIRGRPPRLPRPRPRPVGAPRP | 1.13
96 | RRIRGRPPRLPRPRPRPVGCPRP | 0.74
97 | RRIRGRPPRLPRPRPRPVHEPRP | 0.434
98 | RRIRGRPPRLPRPRPRPVHTPRP | 0.174
99 | RRIRGRPPRLPRPRPRPVIDPRP | 0.292
100 | RRIRGRPPRLPRPRPRPVIHPRP | 0.0507
101 | RRIRGRPPRLPRPRPRPVKIPRP | 0.16
102 | RRIRGRPPRLPRPRPRPVLFPRP | 0.752
103 | RRIRGRPPRLPRPRPRPVLVPRP | 0.628
104 | RRIRGRPPRLPRPRPRPVMQPRP | 0.775
105 | RRIRGRPPRLPRPRPRPVPCPRP | 0.463
106 | RRIRGRPPRLPRPRPRPVPEPRP | 1.98
107 | RRIRGRPPRLPRPRPRPVPHPRP | -0.0133
108 | RRIRGRPPRLPRPRPRPVPSPRP | 0.201
109 | RRIRGRPPRLPRPRPRPVPYPRP | 0.11
